Laboratory results as given in the DeepSol protein solubility set.

Assay: soluble on expression in E. coli; label from the status in PepcDB or PDB records

| Sequence | soluble on expression in E. coli |
| --- | --- |
| GETQPESAAFTAPSTDNPIRINFNENPLGMSPKAQAAARDAVVKANRYAKNEILMLGNKLAAHHQVEAPSILLTAGSSEGIRAAIEAYASLEAQLVIPELTYGDGEHFAKIAGMKVTKVKMLDNWAFDIEGLKAAVAAYSGPSIVYLVNPNNPTGTITPADVIEPWIASKPANTMFIVDEAYAEFVNDPRFRSISPMITQGAENIILLKTFSKIHAMAGMRVGYAVAHPTVIALMGRYVAGEKINFSGVDAALASMNDSAFITYSKKSNDVSRQILLKALEDLKLPYLPSEGNFVFHQLVVPLKDYQTHMADAGVLIGRAFPPADNWCRISLGTPQEMQWVADTMREFRKKSWI | soluble |
| MKTLLEVKDLQVSFDTHAGEVQAVRGVTFDLKKGETLAIVGESGSGKSVTSKALMGLIPNPPGRIKNGEIVFEGRDLTKLTEKEMQQVRGKDIAMIFQDPMTSLNPTMTIGNQIMEGLIKHQGMSKADARKVALELIDLVGIPNPEARLKQYPHQFSGGMRQRVVIAMALACNPKLLIADEPTTALDVTIQAQILELMKDIQQKTEAAIIFITHDLGVVANVADRVAVMYAGKVVEIGTVDEIFYNPKHPYTWGLIASMPSLDGSEEELYAIPGTPPDLLKPPKGDAFAPRNPQALKIDFEMDPPLFKVSDTHYAATWLLHEQAPEVRPPAVVEKRILQMKAGEQHD | not soluble |
| MSLGMRDVAKEAGVSLSTVSLVVNKTGYVSDDMRARVEAAMKELNYVPNELARNLYKNRTNLVGVIVPTIRHPFFATLTAHLQRELAAQGLRTMLCSTADAENGEVEYVDMLRRHMMDGIIVCSHTTHPNDYWTSIHRPIVAFDRVLGGGIASIGSDHEQGGRLMAHMLVNTGAHHVVMIGGPRDQFFDLAARNGDSPDDFDLHKTTFPTVRYYLALEQELKAAGVRYEYVEAGNVEDFQGYKNAVNAVLNSMPVDGVDAVVSSDIGAALCVREAMRRHISIPRDLQIIAYDGTYLTDLAGMKMTAVAQNFDKIAQVAVGNIVRAIAKEGDAKADTTSATGRKPYEPDVLIPVTLKLGDTTREGHHHHHH | soluble |
| MGSDKIHHHHHHINVYFRGPRTHRMPQWVRVVFLQFLPKLVCMKRPKSASERSAVRSGMAQLPGVGQFTLSPSAHHPLCPSADDRTTTIRNTASNETSAYYPLSTDALRAIDAIEYITEHLKRDEQHKSFRDDWKYVAMIIDRL | not soluble |
| MGSDKIHHHHHHMKPYIVAHMMSSLDGRSLTDGWHLDYASDLYETTAATFEADGWICGRVTMQEISHGKDYPAGLASGAVPRTDHFVERNADQYAISIDPQGRVAWKSNTALKSHVIEVLTEQVADDYLAYLQSIGVSYVFGGKTGIDLDKVVQTLARELGVKKLIVEGGSHVSGAFVNAGLVDEVSVLILPLVDGRSEHPSSFEVAMEKWQAPAYLKLTSVEKTDHDAVWLRYTKA | not soluble |
| MEKETKEKIEKTVIEILSESDMKEITEFKVRKLASEKLAIDLSEKSHKAFVRSVVEKFLDEERAREYENSQVNKEEEDGDKDCGKGNKEFDDDGDLIICRLSDKRRVTIQEFKGKSLVSIREYYKKDGKELPTSKGISLTDEQWSTFKKNMPAIENAVKKMESRV | soluble |
| VRSMGFLHRACRAPSSLPAPLMARPGRSVLARPAATPPGPLCATTRPRPPQGNQPPASRISNFPPKRHKTRVLAAAEDEVSAAVAALISAHGRRHHSLNNQAAAFHGQFAQNLNVGAGSCASAETTADAPTQALLGPADRQRRQRRAVRQWLVRWAAHPGRATRGFHNHRQ | not soluble |
| MRKIRLVYRRFPNRVIMREDEVIEDFGDVIVAKSEFTGMLAPLRVNGVEVINNGYKMVYFAFIGRDFDVLKIYDPSGNFKGLYVDVLDYTRREGNTVEILDLFLDIFIFPEGEYYLLDEDELEMAFNYGIISREKLLKAYDTAERIIGQIKRGKFPPKIVWEYSL | not soluble |
| GPGSMIQSDIVSYVGEMGDVPDALLITPLKDRKSSVYLTKYEVARIIGERARQIVNGTSVLLDSQNGCGTGNSLELAEGCADPFAASVDPIHITKLELLQGRIPMIVRRTWPDGRTENIPVNELKVDKMLLDVQH | not soluble |
| MGSDKIHHHHHHVQKMAEGSHSAITLEAGKYRATVDPLGAALRTLHWGERELVWGYPEGRPQLAQGQILLPWPNRIDHGRYSFGGTTYQLEITEPELDNAIHGLTSTLLWQPSQITADSVRFTLAFDGAPGYPFRMEFWVCYSLDPDHGLHVRIGAQNTGDGPAPYGHGSHNYLTLGLPVDEVTLQLPAAEWQPVNERMIPTGPVRSVAGTDYDFRTPRQVGPTVLDTAFTGLRFDEAGRSWTVLSAGELCVGLWADDSHPWLQVFSADYPGPERRRHLAVEPMTCPPNAFVTGTDLIVLDPGQSIESSFGITSTPE | not soluble |
| MEEFVNPCKIKVIGVGGGGSNAVNRMYEDGIEGVELYAINTDVQHLSTLKVPNKIQIGEKVTRGLGAGAKPEVGEEAALEDIDKIKEILRDTDMVFISAGLGGGTGTGAAPVIAKTAKEMGILTVAVATLPFRFEGPRKMEKALKGLEKLKESSDAYIVIHNDKIKELSNRTLTIKDAFKEVDSVLSKAVRGITSIVVTPAVINVDFADVRTTLEEGGLSIIGMGEGRGDEKADIAVEKAVTSPLLEGNTIEGARRLLVTIWTSEDIPYDIVDEVMERIHSKVHPEAEIIFGAVLEPQEQDFIRVAIVATDFPEEKFQVGEKEVKFKVIKKLHHHHHH | soluble |
| MSYNLLGFLQRSSNFQSQKLLWQLNGRLEYCLKDRMNFDIPEEIKQLQQFQKEDAALTIYEMLQNIFAIFRQDSSSTGWNETIVENLLANVYHQINHLKTVLEEKLEKEDFTRGKLMSSLHLKRYYGRILHYLKAKEYSHCAWTIVRVEILRNFYFINRLTGYLRN | not soluble |
| MRDNLVEQIISDVMNKQTDISPEAKTAANFAGCGITEFVGTALGHTIGLVIANVDNQLHEVMNIDKKYRSIGILGARTGAGPQIFAADEAIKATNSEIISIELARDTEGGGGHGCLIIFGASDVSDVRRAVEVALSEIERTMGDVYGSSAGHLEFQYTARASYALNKALGAPIGKSFGMTCASPAAIGLVIADAAAKSAVIDPVGYASPSQGTSFSNEVIFTFSGDSGAVRQAVIAAREVGLQLLSTLDPVEIKSTTTPYI | soluble |
| MAHHHHHHMSEENNIRKGPSFVFHDIKKKRMREIILMCNKKKQKKMLLKSLNIKFIYEEKNKKRVKIHVDNFLPVSINSDMEIIKKYKEILYDDNYCNIYDINKLKIGKMKKILKDFFYDIFLFCKYIFYKFIYKCQNIINLFLEYKQIMLSHCINRVPYFIKVFSFSSLHILLKYSIRSFFKNYSFYKYIFTPNYKICFLCIHKNSYYSEIEKEDTSQICFDDVSTCQEINILGSEEYLRGLVTSSVGFIDNYDDKNRGNNFLEIFQKHMNIFDIKKDDVHFKINKYEQRIDIEKAFSHIKNNILQKYDERRREKKKDNDKLIRRVQNMYDDVENKIMSSLKKILDITNYDEEREKC | soluble |
| MGSDKIHHHHHHLTLMGLSVTDYDSEMPDATEPGTTERSLVELLLAEGPSTRLELQAKLGVSRPTLSSAVNKLLSLGLLQEQGTAAYGAGRNGRPQALLAPNRAMGAAVGIELGKAQVAVTILAIDGTVHAQKVTSTSPGTTLQRRLNIALGSVGTFISSNILNPESVLGVGVGVSGLHPDARPAGGSALVDPPGAKLDKLRTLLAAPVVWDNNTRMATFRHLGGSGLDSPGAVLYVVLSAGVSAGIVDGGEVLRGRGAAGELGHVCLDPEGPVCGCGSRGCLEAYVGVEAVLRSARGKGATVADLEELAAVVQSGDADALAVIGLVGRMLGIGLNNAAMLVDPRRIILTGPLLSLGPALVSAATEELRIRRMAVTLGVPDVVAEIGSPFDSSHGAALTALRRWGPGFMGMLTQNGIATTG | not soluble |
| SLTVFQPLVPPDWKMNLRDGELYAQVAFSAAPEQGFRAGGHGVLKGGSAWMPDNQVNGVDFVLPFRFADGAWHLGTRGPVTLRIAEVINLVTAKNITADLQGRYPWTEEEPLLLTDVSVDVLGGNVLMKQLRMPQHDPALLRLNNLSSSELVSAVNPKQFAMSGAFSGALPLWLNNEKWIVKDGWLANSGPMTLRLDKDTADAVVKDNMTAGSAINWLRYMEISRSSTKINLDNLGLLTMQANITGTSRVDGKSGTVNLNYHHEENIFTLWRSLRFGDNLQAWLEQ | not soluble |
| MGDEYMDDDEDYGFEYEDDSGSEPDVDMENQYYTAKGLRSDGKLDEAIKSFEKVLELEGEKGEWGFKALKQMIKITFGQNRLEKMLEYYRQLLTYIKSAVTKNYSEKSINAILDYISTSRQMDLLQHFYETTLDALKDAKNERLWFKTNTKLGKLFFDLHEFTKLEKIVKQLKVSCKNEQGEEDQRKGTQLLEIYALEIQMYTEQKNNKALKWVYELATQAIHTKSAIPHPLILGTIRECGGKMHLRDGRFLDAHTDFFEAFKNYDESGSPRRTTCLKYLVLANMLIKSDINPFDSQEAKPFKNEPEIVAMTQMVQAYQDNDIQAFEQIMAAHQDSIMADPFIREHTEELMNNIRTQVLLRLIRPYTNVRISYLSQKLKVSQKEVIHLLVDAILDDGLEAKINEESGMIEMPKNKKKMMVTSLVVPNAGDQGTTKSDSKPGTSSEPSTTTSVTSSILQGPPATSSCHQELSMDGLRVWAERIDSIQSNIGTRIKF | not soluble |
| MSLEPCWKVGFAETSGCLPKLCIAQLRLPAFCNSEGLFGLFDGETGNGVPNLLVKAIPKILLEERTVKETANDYMKYTLLSAHRELKQRGQQEAVNVTLCHIARSRLPTEAMSYLPQTVASGRKFILRVATVGESSAVLIKHNRCVLLNKGSPARKLGLSANFPVTVPDPEVQEVVLTDADEYLVLGNRKLWEVITMETVAEEIRKEENILLAAKRVQDIAQSYGAEENLSVMIVRFNEGHHHHHH | soluble |
| MNDFSLELPVRTNKPRETGQSILIDNGYPLQFFKDAIAGASDYIDFVKFGWGTSLLTKDLEEKISTLKEHDITFFFGGTLFEKYVSQKKVNEFHRYCTYFGCEYIEISNGTLPMTNKEKAAYIADFSDEFLVLSEVGSKDAELASRQSSEEWLEYIVEDMEAGAEKVITEARESGTGGICSSSGDVRFQIVDDIISSDIDINRLIFEAPNKTLQQGFIQKIGPNVNLANIPFHDAIALETLRLGLRSDTFFL | soluble |
| MSDEGLAPGKRLSEIRQQQGLSQRRAAELSGLTHSAISTIEQDKVSPAISTLQKLLKVYGLSLSEFFSEPEKPDEPQVVINQDDLIEMGSQGVSMKLVHNGNPNRTLAMIFETYQPGTTTGERIKHQGEEIGTVLEGEIVLTINGQDYHLVAGQSYAINTGIPHSFSNTSAGICRIISAHTPTTF | not soluble |
